Test results as given in doi:10.1101/2021.04.08.438944.
Blank lines part the entries; values can stand above or below the molecule they belong to.

Columns and labels:
[1] = molecular target: DNAJB14-ΔDUF tagged with FLAG (human); assay: co-IP
[2] = molecular target: DNAJB14-ΔDUF tagged with FLAG (human); assay: co-IP; remark: listed apart in the source

DNAJB14-ΔDUF tagged with FLAG (human), sequence (Q8TBM8 whole entry, stated change not applied): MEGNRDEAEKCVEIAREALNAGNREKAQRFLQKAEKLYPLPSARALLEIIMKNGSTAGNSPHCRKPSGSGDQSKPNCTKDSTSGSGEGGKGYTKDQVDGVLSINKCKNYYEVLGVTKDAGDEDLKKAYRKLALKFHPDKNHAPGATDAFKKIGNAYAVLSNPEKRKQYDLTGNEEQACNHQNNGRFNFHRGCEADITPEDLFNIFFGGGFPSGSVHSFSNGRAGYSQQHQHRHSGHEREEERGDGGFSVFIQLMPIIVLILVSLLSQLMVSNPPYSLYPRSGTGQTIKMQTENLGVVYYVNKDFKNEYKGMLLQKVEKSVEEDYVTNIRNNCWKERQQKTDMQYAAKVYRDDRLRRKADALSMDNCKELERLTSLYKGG

interaction left relative to DNAJB14-FL (co-IP densitometry) [1]: 50%
Molecule: HSP70 (from UniProt P0DMV8 1-641) (natural protein)

fold lower than DNAJB14-FL (co-IP densitometry) [2]: 3 fold lower
B1: DNAJB12-FL tagged with mOrange (natural protein)
chain: MESNKDEAERCISIALKAIQSNQPDRALRFLEKAQRLYPTPRVRALIESLNQKPQTAGDQPPPTDTTHATHRKAGGTDAPSANGEAGGESTKGYTAEQVAAVKRVKQCKDYYEILGVSRGASDEDLKKAYRRLALKFHPDKNHAPGATEAFKAIGTAYAVLSNPEKRKQYDQFGDDKSQAARHGHGHGDFHRGFEADISPEDLFNMFFGGGFPSSNVHVYSNGRMRYTYQQRQDRRDNQGDGGLGVFVQLMPILILILVSALSQLMVSSPPYSLSPRPSVGHIHRRVTDHLGVVYYVGDTFSEEYTGSSLKTVERNVEDDYIANLRNNCWKEKQQKEGLLYRARYFGDTDMYHRAQKMGTPSCSRLSEVQASLHG
